Patent publication US20190106487A1 (Sanofi, published 2019)

T1: human IL-1RAcP on 293T/17-FR cells (human, UniProt Q9NPH3 21-570)
T1 sequence (looked up): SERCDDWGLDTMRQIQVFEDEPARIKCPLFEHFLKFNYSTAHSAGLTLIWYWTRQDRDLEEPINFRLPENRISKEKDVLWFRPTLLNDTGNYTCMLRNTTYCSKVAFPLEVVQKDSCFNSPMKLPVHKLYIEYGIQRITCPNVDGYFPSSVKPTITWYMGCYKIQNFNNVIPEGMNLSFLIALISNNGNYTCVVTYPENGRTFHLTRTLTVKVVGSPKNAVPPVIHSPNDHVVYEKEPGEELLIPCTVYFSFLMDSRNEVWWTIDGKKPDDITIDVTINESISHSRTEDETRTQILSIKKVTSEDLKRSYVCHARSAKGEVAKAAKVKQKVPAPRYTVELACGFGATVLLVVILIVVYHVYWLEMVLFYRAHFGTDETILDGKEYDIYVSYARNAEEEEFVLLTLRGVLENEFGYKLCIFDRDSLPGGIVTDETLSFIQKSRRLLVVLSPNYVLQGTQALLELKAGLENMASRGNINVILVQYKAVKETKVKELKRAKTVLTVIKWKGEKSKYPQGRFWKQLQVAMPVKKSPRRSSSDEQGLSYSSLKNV

T2: rhIL-1RAcP/Fc Chimera (human, UniProt Q9NPH3 21-359)
T2 construct: also called P013_03; P013-03
T2 sequence (looked up): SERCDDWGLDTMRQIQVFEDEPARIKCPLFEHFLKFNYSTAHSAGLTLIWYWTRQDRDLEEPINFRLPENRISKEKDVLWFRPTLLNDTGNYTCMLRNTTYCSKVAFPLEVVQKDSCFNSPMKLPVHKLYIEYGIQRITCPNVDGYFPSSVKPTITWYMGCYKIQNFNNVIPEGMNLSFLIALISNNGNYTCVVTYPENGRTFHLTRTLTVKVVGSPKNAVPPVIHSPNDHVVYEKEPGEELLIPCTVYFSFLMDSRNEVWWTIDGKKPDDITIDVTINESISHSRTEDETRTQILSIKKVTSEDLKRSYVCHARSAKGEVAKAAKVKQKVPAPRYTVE


Key:
[1] = target: T1, human IL-1RAcP on 293T/17-FR cells; experiment: cell-based or functional assay
rhIL-1RAcP/Fc Chimera [2] = target: T2, rhIL-1RAcP/Fc Chimera; experiment: ELISA, recombinant purified mAb
rhIL-1RAcP/Fc Chimera [3] = target: T2, rhIL-1RAcP/Fc Chimera; experiment: ELISA, primary supernatant, coated hu-IL-1RAcP-Fc
Description: Microtiter plates were coated IL-1RACP and/or IL12Rβ1 protein (recombinant Fc chimeric conjugates of human IL-1RACP or IL12Rβ1). After a blocking process, specific antibodies from B-cell supernatants bind to the targets and are then detected by a POD-labeled anti-rabbit IgG antibody. The IL12Rβ1 binding was used as a counterscreen. IL-1RACP protein was tagged with a linker, huFc and His like the IL12Rβ1 protein. Antibodies which bind to the tag were positive in both assays, whereas antigen specific antibodies just bound to IL-1RACP and not to IL12Rβ1.
12.5 μL 0.5 μg/mL IL-1RACP protein in PBS was transferred to a microtiter plate, incubated and washed 3× with Wash Buffer. 90 μL Block Buffer was added to each well, incubated and washed. 12.5 μl Standard Antibody (rabbit mAb against IL-1RAcP, anti IL12Rbeta1 antibody: IL-12Rbeta1 antibody; GeneTex; Cat. No. GTX103917) or sample diluted in ELISA buffer was added, incubated and washed. 12.5 μl 1:5000 POD-Antibody (Anti-rabbit IgG, peroxidase-linked species-specific Fab2 fragment (from donkey) (ECL); assay dilution: 1:5000) in Elisa Buffer was added, incubated and washed. 15 μl TMB was added and 15 μl HCl was added after sufficient development. Absorbance (Optical Density O.D.) was read at 450 nm/620 nm.

Binder	functional reporter gene assay (% inhibition), 0.04 µg/mL mAb [1] [%]	functional reporter gene assay (% inhibition), 0.2 µg/mL mAb [1] [%]	functional reporter gene assay (% inhibition), 1 µg/mL mAb [1] [%]	functional reporter gene assay (% inhibition), 5 µg/mL mAb [1] [%]	primary supernatant functional assay (% inh.), NF-kB luciferase reporter [1] [%]	EC50 (rhIL-1RAcP/Fc Chimera [2]) [mg/L]	hu-IL1RaP ELISA (OD) (rhIL-1RAcP/Fc Chimera [3])
P013.S.01.B.B02 (antibody, V domains shown, rabbit monoclonal antibody; also called P013.A.00014.B03) VH: LEQSGGGAEGGLVKPGGSLELCCKASGFSLSSSYWICWVRQAPGKGLEWIGCIYTGSSGITYYASWVNGRFTLSRDIDQSTGCLQLNSLTAADTAMYYCAKDGPSTLFNFWGQGTLVTVSS VL: ALVMTQTPSPVSAAVGGTVTINCQASEDIYSNLAWFQQKPGQPPKLLIYRASTLASGVPSRFKGSGSGTEFTLTISGLQSDDAATYYCLGVYTYPSADNAFGGGTEVVVR	75	84	94	98	97	0.175	3.6
P013.S.01.B.D06 (antibody, V domains shown, rabbit monoclonal antibody; also called P013.A.00029.D02) VH: QSLEESGGDLVKPGASLTLTCTASGFSFSSSYYMCWVRQAPGKGLEWIACIYAGSSGVTYYASWAKGRFTISDTSSTTVTLQMTSLTAADTATYFCASETDGNYFNLWGPGTLVTVSS VL: ALVMTQTPSPVSAAVGGTVTINCQASEDIYSNLAWFQQKPGQPPKLLIYRASTLASGVPSRFSGSGSGTEFTLTISGLQSDDAATYYCLGVYTYSTDIHAFGGGTEVVVK	24	66	96	97	80	0.053	3.7
P013.S.01.B.G06 (antibody, V domains shown, rabbit monoclonal antibody; also called P013.A.00085.H05) VH: QSLEESGGRLVTPGTPLTLTCTASGFTISSYYMSWVRQAPGKGLEWIGGIATDGNTYYANWAKGRFTVSRTSTTVDLKVTSPTAEDTATYFCARGGPAYSRGTHYAMDLWGPGTLVTVSS VL: AYDMTQTPASVEVAVGGTVTIKCQASQSIYIYLAWYQQKPGQRPKQLIYDASKLASGVPSRFSGSGSGTEFTLTISGVESADAATYYCQQGATIWNVDNPFGGGTEVVVK	69	49	94	96	89	0.115	3.8
P013.S.01.B.C05 (antibody, V domains shown, rabbit monoclonal antibody; also called P013.A.00045.E06) VH: QSVEESGGRLVTPGTPLTLTCTVSGFSLSNYAMSWVRQAPGKGLEYIGIIDSGGSAYYATWARGRFTISRTSTTVDLKMTSPTTEDTATYFCARGGPAYSTNTHYTLDLWGPGTLVTVSS VL: AFEMTQTPSSVSEPVGGTVTIKCQASQSIYNYLSWYQQKPGQPPKLLIYDASELASGVPSRFKGSGSGTEFTLTISGVQSDDAATYYCQQGATTYNIENVFGGGTEVVVK	67	74	87	95	27	0.038	2.5
P013.S.01.B.H04 (antibody, V domains shown, rabbit monoclonal antibody; also called P013.A.00014.G05) VH: QSVEESGGRLVTPGTPLTLTCTVSGFSLDSYAMGWVRQAPGKGLEWIGIINSYGSIYYASWAKGRFTISKTSTTVDLKMTSLTTEDTATYFCARSAYSNNGDRLHLWGQGTLVTVSS VL: DIVMTQTPSPVSGAVGGTVTIKCQASEDIYSNLAWYQQKPGQPPKLLIYYVSTLESGVPSRFKGSRSGTDYTLTISDLESADAATYYCQCTEGGSGSDYTFGGGTEVVVK	10	49	49	54	35	0.062	3.7
P013.S.01.B.C02 (antibody, V domains shown, rabbit monoclonal antibody; also called P013.A.00014.C10) VH: QSLEESGGDLVKPGASLTLTCTASGFSFSSSHYMCWVRQAPGKGLEWIACIYAGSSGNTYYANWAKGRFTISKTSSTTVTLQMTSLTAADTATYFCARVDASSSGSWDLWGPGTLVTVSS VL: AIEMTQTPFSVSAAVGGTVTINCQASESIYSNLAWYQQILGQPPKLLIYAASLLASGVPSRFKGSGSGTEYTLTISGVQSADAATYYCQSASYSTGPDWTFGGGTEVVVE	18	78	99	98	82	0.105	3.4
P013.S.02.B.E03 (antibody, V domains shown, rabbit monoclonal antibody; also called P013.A.00091.A10) VH: QSVEESGGRLVTPGTPLTLTCTVSGFSLSDYYMGWVRQAPGKGLEWIGTIDGGGSTYYASWAKGRFTVSKTSTTVDLTITSPTTEDTAIYFCARNYYAGLSDVFFGWWGQGTLVTVSS VL: DVVMTQTPASVEAAVGGTVTIMCQASETIYSGLAWYQQKPGQPPKLLIYYTSSLASGVPSRFKGSGSGTEFTLTISDLESADAATYYCQTYYDSEGRSYGYNSFGGGTEVVVK	6	12	16	25	37	0.363	3.3
P013.S.02.B.C04 (antibody, V domains shown, rabbit monoclonal antibody; also called P013.A.00085.H07) VH: QQLEQSGGGLVKPGGSLELCCKASGFSLSSSYWICWVRQAPGKGLEWIGCIYAGSSGSTYYANWVNGRFTLSRDIDQSTGCLQLSSLTAADTAMYYCARSIVDFSSGWGDLWGQGTLVTVSS VL: ALVMTQTPSPVSAAVGGTVTINCQASEDIYSNLAWYQQKPGQPPKLLMYGVSTLASGVPSRFSDSGSGTEFTLTISGLQSDDAATYYCLGVYTYISDVYYTFGGGTEVVVK	29	26	40	91	65	0.758	2.7
P013.S.01.B.G05 (antibody, V domains shown, rabbit monoclonal antibody; also called P013.A.00088.C10) VH: LEQSGGGAEGGLVKPGGSLELCCKASGFSLSSAYWICWVRQAPGKGLEWVGCIYADSSSITYYASWVNGRFTLSRDIDQSTGCLQLNSLTAADTAMYYCARDYGGSGYNFNLWGQGTLVTVSS VL: ALVMTQTPSPVSAAVGGTVTISCQASEDIYSNLAWYQQKRGQPPKLLIYYASTLASGVPSRFSGSGSGTEFTLTISGLQSDDAATYYCLGVCTYINANGWDNAFGGGTEVVVK	21	50	82	93	81	0.817	3.3
